In publication PMC11190991, “Encapsulation of Transketolase into In Vitro-Assembled Protein Nanocompartments Improves Thermal Stability” (ACS Applied Bio Materials, 2024):

Tests used:
[1] = molecular target: E. coli transketolase with C-terminal T. maritima cargo loading peptide (E. coli | T. maritima)
[2] = molecular target: Thermotoga maritima encapsulin (T = 1 capsid shell) (Thermotoga maritima) (UniProt Q9WZP2); assay: SEC; in vitro loading during reassembly (10 μM encapsulin monomer, cargo at stated molar ratio), SEC on Superose 6 to remove non-encapsulated cargo, co-eluted cargo seen by SDS-PAGE and quantified by densitometry against standard curves
[3] = molecular target: Myxococcus xanthus encapsulin (T = 1 and T = 3 capsid shells) (Myxococcus xanthus) (UniProt Q1D6H4); assay: as above
[4] = molecular target: Myxococcus xanthus encapsulin (T = 1 and T = 3 capsid shells) (Myxococcus xanthus) (UniProt Q1D6H4); assay: co-purification after co-expression + SDS-PAGE densitometry; in vivo loading: sfGFP-CLP co-expressed with Strep-tagged encapsulin in E. coli, capsids purified (SEC purified samples), cargo quantified by SDS-PAGE densitometry; single experiment
[5] = molecular target: Thermotoga maritima encapsulin (T = 1 capsid shell) (Thermotoga maritima) (UniProt Q9WZP2); assay: as above
[6] = molecular target: the molecule itself; assay: native gel or EMSA; BN-PAGE of samples disassembled in denaturant: 6 M GuHCl, 8 M urea (20 mM Tris-Cl pH 7.5), 0.15 M HCl pH 1.0 or 0.15 M NaOH pH 13.0
Q9WZP2 = assay: SEC; Superose 6 10/300 GL, 20 mM Tris-Cl, 50 mM NaCl, pH 7.5; A280 peak area of higher-order structures after reassembly against before disassembly; Tm_encap from 0.15 M NaOH, Mx_encap from 8 M urea

In the case of “E. coli transketolase with C-terminal T. maritima cargo loading peptide (enzyme)”, the end-point transketolase activity (erythrulose from HPA and GA) of TK-TmCLP encapsulated in Tm encap, against free TK (100%) [1] is reported as 50 % drop and the stoichiometry N (dimers per capsid) [2] is reported as 2.6.

“superfolder GFP with C-terminal M. xanthus cargo loading peptide” gave a stoichiometry N (copies per capsid) [3] of 20 and a stoichiometry N (copies per capsid) [4] of 31.

Work on “superfolder GFP with C-terminal T. maritima cargo loading peptide” yielded a stoichiometry N (copies per capsid) [2] of 15 and a stoichiometry N (molecules per capsid) [5] of 2.94.

B1: Thermotoga maritima encapsulin (T = 1 capsid shell) (natural protein, UniProt Q9WZP2 1-265, looked up)
chain: MEFLKRSFAPLTEKQWQEIDNRAREIFKTQLYGRKFVDVEGPYGWEYAAHPLGEVEVLSDENEVVKWGLRKSLPLIELRATFTLDLWELDNLERGKPNVDLSSLEETVRKVAEFEDEVIFRGCEKSGVKGLLSFEERKIECGSTPKDLLEAIVRALSIFSKDGIEGPYTLVINTDRWINFLKEEAGHYPLEKRVEECLRGGKIITTPRIEDALVVSERGGDFKLILGQDLSIGYEDREKDAVRLFITETFTFQVVNPEALILLKF
notes: T = 1 capsid, 1.97 MDa; also called T. maritima encapsulin; source: E. coli BL21 Star (DE3), purified (Strep-TactinXT); disassembled and reassembled in vitro; also co-expressed with sfGFP-TmCLP for in vivo loading; not shown: Strep-Tag II (after a GSG linker), C-terminal, kept; copies: 60
With B1 the “stoichiometry N” value [6] was 2 and the “recovery of higher-order structures after reassembly (SEC peak area, 8-14 mL)” value (Q9WZP2) was “we determined the recovery to be 82%”.
